In PMC11417362, “Template-independent synthesis and 3′-end labelling of 2′-modified oligonucleotides with terminal deoxynucleotidyl transferases” (Nucleic Acids Research, 2024):

Tests used:
[1] = substrate: CO[C@@H]1[C@H](O)[C@@H](COP(=O)(O)OP(=O)(O)OP(=O)(O)O)O[C@H]1n1cnc2c(=O)[nH]c(N)nc21; experiment: steady-state primer extension, denaturing PAGE, Michaelis-Menten fit; assay type: biochemical, Mus musculus; conditions: 100 nM ssDNA primer FAM-18G, 10 mM Mg(OAc)2, 1x TdT buffer (100 mM KCl, 30 mM Tris-acetate, 0.05% Triton X-100), pH 7.5, 37°C
Excerpt: (§1) steady-state primer extension, denaturing PAGE, Michaelis-Menten fit on murine TdT

[2] = substrate: Cc1cn([C@H]2C[C@H](O)[C@@H](COP(=O)(O)OP(=O)(O)OP(=O)(O)O)O2)c(=O)[nH]c1=O; experiment: as above; assay type: biochemical, Mus musculus; conditions: 100 nM ssDNA primer FAM-18G, 10 mM Mg(OAc)2, 1x TdT buffer (100 mM KCl, 30 mM Tris-acetate, 0.05% Triton X-100), pH 7.5, 37°C
Excerpt: as §1

[3] = substrate: Nc1ccn([C@@H]2O[C@H](COP(=O)(O)OP(=O)(O)OP(=O)(O)O)[C@@H](O)[C@@H]2F)c(=O)n1; experiment: as above; assay type: biochemical, Mus musculus; conditions: 100 nM ssDNA primer FAM-18G, 10 mM Mg(OAc)2, 1x TdT buffer (100 mM KCl, 30 mM Tris-acetate, 0.05% Triton X-100), pH 7.5, 37°C
Excerpt: as §1

[4] = substrate: Nc1ccn([C@H]2C[C@H](O)[C@@H](COP(=O)(O)OP(=O)(O)OP(=O)(O)O)O2)c(=O)n1; experiment: as above; assay type: biochemical, Mus musculus; conditions: 100 nM ssDNA primer FAM-18G, 10 mM Mg(OAc)2, 1x TdT buffer (100 mM KCl, 30 mM Tris-acetate, 0.05% Triton X-100), pH 7.5, 37°C
Excerpt: as §1

[5] = substrate: Nc1nc2c(ncn2[C@@H]2O[C@H](COP(=O)(O)OP(=O)(O)OP(=O)(O)O)[C@@H](O)[C@@H]2F)c(=O)[nH]1; experiment: as above; assay type: biochemical, Mus musculus; conditions: 100 nM ssDNA primer FAM-18G, 10 mM Mg(OAc)2, 1x TdT buffer (100 mM KCl, 30 mM Tris-acetate, 0.05% Triton X-100), pH 7.5, 37°C
Excerpt: as §1

[6] = substrate: Nc1nc2c(ncn2[C@@H]2O[C@H](COP(=O)(O)OP(=O)(O)OP(=O)(O)O)[C@@H](O)[C@H]2F)c(=O)[nH]1; experiment: as above; assay type: biochemical, Mus musculus; conditions: 100 nM ssDNA primer FAM-18G, 10 mM Mg(OAc)2, 1x TdT buffer (100 mM KCl, 30 mM Tris-acetate, 0.05% Triton X-100), pH 7.5, 37°C
Excerpt: as §1

[7] = substrate: Nc1ncnc2c1ncn2[C@H]1C[C@H](O)[C@@H](COP(=O)(O)OP(=O)(O)OP(=O)(O)O)O1; experiment: as above; assay type: biochemical, Mus musculus; conditions: 100 nM ssDNA primer FAM-18G, 10 mM Mg(OAc)2, 1x TdT buffer (100 mM KCl, 30 mM Tris-acetate, 0.05% Triton X-100), pH 7.5, 37°C
Excerpt: as §1

[8] = substrate: O=c1ccn([C@@H]2O[C@H](COP(=O)(O)OP(=O)(O)OP(=O)(O)O)[C@@H](O)[C@H]2F)c(=O)[nH]1; experiment: as above; assay type: biochemical, Mus musculus; conditions: 100 nM ssDNA primer FAM-18G, 10 mM Mg(OAc)2, 1x TdT buffer (100 mM KCl, 30 mM Tris-acetate, 0.05% Triton X-100), pH 7.5, 37°C
Excerpt: as §1

[9] = substrate: CO[C@@H]1[C@H](O)[C@@H](COP(=O)(O)OP(=O)(O)OP(=O)(O)O)O[C@H]1n1ccc(N)nc1=O; experiment: purified protein, by the assay type
Experimental: (§2) The steady-state kinetic experiments were performed as described previously with minor modifications ([61]). A 2× reaction solution was prepared by mixing 200 nM primer FAM-18G, 0–128 μM 2′-modified NTP and 20 mM Mg(OAc)2 in 2× TdT buffer. A 5 μl aliquot of pre-warmed 2× reaction solution was mixed with 5 μl of bovine TdT, MTdT-evo or murine TdT of varying concentration, and incubated at 37°C for a certain time. The reaction was then quenched by the addition of 10 μl of 2× TBE-urea sample buffer and incubation at 95°C for 10 min. The products were analysed with 20% denaturing PAGE gels containing 8 M urea. All gel bands were quantified using Quantity One analysis software (Bio-Rad). Km and kcat values were calculated by fitting the data to the Michaelis–Menten equation with GraphPad Prism 8 software. To quantify the activities of different TdTs for the incorporation of 2′-modified NTPs, steady-state kinetic experiments were carried out.

[10] = substrate: Nc1ncnc2c1ncn2[C@@H]1O[C@H](COP(=O)(O)OP(=O)(O)OP(=O)(O)O)[C@@H](O)[C@@H]1F; experiment: purified protein, by the assay type
Experimental: as §2

[11] = substrate: Nc1ncnc2c1ncn2[C@@H]1O[C@H](COP(=O)(O)OP(=O)(O)OP(=O)(O)O)[C@@H](O)[C@H]1F; experiment: purified protein, by the assay type
Experimental: as §2

[12] = substrate: O=c1ccn([C@@H]2O[C@H](COP(=O)(O)OP(=O)(O)OP(=O)(O)O)[C@@H](O)[C@@H]2F)c(=O)[nH]1; experiment: purified protein, by the assay type
Experimental: as §2

B1: murine TdT (Mus musculus) (protein)
chain: MDPLQAVHLGPRKKRPRQLGTPVASTPYDIRFRDLVLFILEKKMGTTRRAFLMELARRKGFRVENELSDSVTHIVAENNSGSDVLEWLQLQNIKASSELELLDISWLIECMGAGKPVEMMGRHQLVVNRNSSPSPVPGSQNVPAPAVKKISQYACQRRTTLNNYNQLFTDALDILAENDELRENEGSCLAFMRASSVLKSLPFPITSMKDTEGIPCLGDKVKSIIEGIIEDGESSEAKAVLNDERYKSFKLFTSVFGVGLKTAEKWFRMGFRTLSKIQSDKSLRFTQMQKAGFLYYEDLVSCVNRPEAEAVSMLVKEAVVTFLPDALVTMTGGFRRGKMTGHDVDFLITSPEATEDEEQQLLHKVTDFWKQQGLLLYCDILESTFEKFKQPSRKVDALDHFQKCFLILKLDHGRVHSEKSGQQEGKGWKAIRVDLVMCPYDRRAFALLGWTGSRQFERDLRRYATHERKMMLDNHALYDRTKRVFLEAESEEEIFAHLGLDYIEPWERNA
notes: recombinant, plasmid pET28a-murine TdT, E. coli BL21(DE3)
Km [1]: 1.97 ± 0.14 µM
kcat [1]: 0.00217 ± 8.67e-05 s⁻¹
kcat/Km [1]: 1100 M⁻¹ s⁻¹
Km [2]: 1.00 ± 0.33 µM
kcat [2]: 0.0198 ± 0.00183 s⁻¹
kcat/Km [2]: 19800 M⁻¹ s⁻¹
Km [3]: 1.66 ± 0.71 µM
kcat [3]: 0.09 ± 0.00667 s⁻¹
kcat/Km [3]: 54200 M⁻¹ s⁻¹
Km [4]: 1.37 ± 0.18 µM
kcat [4]: 0.058 ± 0.0055 s⁻¹
kcat/Km [4]: 42300 M⁻¹ s⁻¹
Km [5]: 2.75 ± 0.23 µM
kcat [5]: 0.247 ± 0.007 s⁻¹
kcat/Km [5]: 90000 M⁻¹ s⁻¹
Km [6]: 2.59 ± 0.36 µM
kcat [6]: 0.0892 ± 0.0055 s⁻¹
kcat/Km [6]: 34500 M⁻¹ s⁻¹
Km [7]: 2.53 ± 0.30 µM
kcat [7]: 0.0307 ± 0.00118 s⁻¹
kcat/Km [7]: 12100 M⁻¹ s⁻¹
Km [8]: 0.95 ± 0.31 µM
kcat [8]: 0.00617 ± 0.000567 s⁻¹
kcat/Km [8]: 6480 M⁻¹ s⁻¹
Km [9]: 5.1 ± 1.53 µM
kcat [9]: 0.00112 ± 8.67e-05 s⁻¹
kcat/Km [9]: 219 M⁻¹ s⁻¹
Km [10]: 3.98 ± 0.33 µM
kcat [10]: 0.204 ± 0.00283 s⁻¹
kcat/Km [10]: 51300 M⁻¹ s⁻¹
Km [11]: 0.62 ± 0.48 µM
kcat [11]: 0.023 ± 0.00108 s⁻¹
kcat/Km [11]: 37200 M⁻¹ s⁻¹
Km [12]: 2.36 ± 0.60 µM
kcat [12]: 0.06 ± 0.00433 s⁻¹
kcat/Km [12]: 25500 M⁻¹ s⁻¹
